Assay: protease stability score; higher = more stable; yeast display proteolysis, trypsin and chymotrypsin;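 note: log10 excess protease needed over predicted unfolded state with 0 meaning unfolded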

First: DTEEREKVMEIMRTGDPDKLHKLMDKNVKVVVGDKRYHGREMVEELVQKLKSQIDHIEVKDYTIQGDNLILNAVINVDGRSVELVIFVRVHNGRIKHMNFNVTDEEEQKKLDENLS
Second: DEQENEKNVKDVQHAMETGDEELMLRNAPPDVRMEIGDKTLRGREEVSKEFKKFAKQIDRHSIHSIRFRGDKFEINMVVTVNGRHAVVNIELQIHNGKVNSMRVDPHDLEQQKQ
The protease stability score of the first is higher: 1.34 for the first, -0.249 for the second.

Compared with “DEEKVVKKHVEDLRENWRTNNEDELMKLAPPDVRVEVGDTEIHGHDQLRHWAQEMSDRIDHLEVDFRSFELENGRAEVNAKVVNNHNGKEDTNSVNITAEVQGDRMKIESMKVK”, “DDDQRRKFERFITAVRTGSKEDLNKLIDPNAKINVGNHRYHGMEEFAKQVVTHNKDLRFHVRFKELDFSGNRVRVSYEMTMTVNGKPYQFTARVEFDVHDGSVKSVREQISEDVEQRQRN” is higher in protease stability score: -0.492 for the first, 0.423 for the second.

Compared with “DEHAKKLAERILEAISNNNEEDIQKNIDPNAKIQVGDRQVHGREDLQKQYQDFRHHARIQNRLRSVRADGDHVTLEIEVVFKVNGNPVNNTVNMSMVIENGRVKMREVQVPEEVQDTIDQ”, “DEEQEKTIHRAHKHNDEDSFRKLFDKDATMQIGNKTFHGREEVETAVTQWHTQVDHLRVDHMRVTNGKLQIDFTAVINGQRIELRVKIKANNGKVKSVKIQARSEEDNEHLKKELD” is higher in protease stability score: 0.075 for the first, 0.407 for the second.

First: DKDAVKRFEELLRALDTNNSEQVKDLLDKNVQFRVGDKVIHGMEEAVRRQIQHNNEIRVEKEIKSIDDHNGRIHVDMTREWEHNGQPRSEKVKFTIEMHNGRVQVDNQKVTS
Second: DEEDLDRVESALRTNDPDTLSEMADKDVKVEYGDKSYQGRERFQHFIKQLAHQVDHVEVRSVDKRGDRLKATRVLVINGRSITVVVTIEARNGRIKMLEMSARNESQEKKLVELFQ
The protease stability score of the first is lower: -0.098 for the first, 0.941 for the second.

Compared with “DDHLRQVMEELKKAEDTGNPDRYVELADEDVEVHVGDTTLKGRTQHREEIKTQKDQSRLSINIQHVDVDGDKVRVQFVFENDHNGKPSTDRQQFVVRAHNGRVKRIENEERR”, “DEHADTIVKKYLDAIKSNNPEDVKENVDKDVDVEVGDTSWHGRDEVVTRVQNELDEIRIDMKVDEVNNQGNHVEVKMHMTLDINGKPATVDWDVKFDIQNGRIQSIRLRPDEENRKQKEK” is higher in protease stability score: -0.114 for the first, 0.057 for the second.

First: DEEELREMVKKWLEVVQKGDQKKAVEMYKPNGEWRMIDEEKQGQEDVEKMLRKAQEDGVEFQTRKAKVEGNKAEMHYDMKLGDETVTFTVQLVAHGGRIDRVKVKVTEEAKKLLTKG
Second: EERQQELAKTFMEAVQSNDTTQLKRMFDKHAKVTVGDKTVSGREDASKWLSKLHKESRVQLRDVKVEVSGNKIDIKVRFEVQHNGKPREVTREMEMTFHNGKIKDLRATRTE
The protease stability score of the first is lower: 0.221 for the first, 0.394 for the second.

Going from “DEEKIKQLLQKMIQYYVSGNKDHLKQLGKDDVQLHAADQTYHGLDQLLKVAEQFKKYGVKLEVKDVKVDGNTIHADVEVTMGGTQWTFKVTAEADGGKVDKVQFDVSEEAKKRIQKG” to “DEEHITNVVKKMVNALRTGDPDTARELADPNVTAEYGDKEIRGREEVSKMVKLLHKQADHVTVKDVKVTNGHMEVRRRQHVNGKEIQMTLEARVHNGKIQEMRVHKK”, the protease stability score falls from 0.959 to -0.305.

First: DEDRLRELVKKFVDAMRTNDEDRIREMMDKDVRVEVGDTVIKGHNEAKKWAKRLRERADHIHFDSVHVQGDRAEVDFQVRHNGKTDRNVLVLRMNNGRVQELRVHTK
Second: DERAADAIERLLKAMKDNDPSELSKQADENVHFDVGEKKYHGMETYARTVAKERHDAEQTYRLKDYRVDENHVSFNMRVVQTNNGKPVDVEAILRANVKGDKVKSMRIDEHK
The protease stability score of the first is higher: 1.81 for the first, -0.23 for the second.

Going from “DEEFQTEAEKMFTNQRNNNEDHLKDQFDKDAKVQVGDKEFHGTERYEETFRTQMEHMRYDIDSFTARVHGEDLDVDVSFQFESNGKPDRNRAKIIATYHNGRIKHLRVDQDQ” to “DDDVVRKAHSFFRQYQRGNPDHLLKMMDPNARVRYGDKTYQGREDLKEILQHQLDRIRIRVKRMSLRAENGHLNVEVDEVLEHNGEPRRATADVKVTWRNGRIHEMQVVWRG”, the protease stability score rises from 0.073 to 0.27.

Going from “DEKQNQEMQDMLHTGDFKRIADLVDENAEWNYGDKTYHGRKTIKKFLDAFQHRADHVEVKRFDVHNGHVSANMQMNVDGRRIDFRVVVHVENGRVKEYRMDFTDPRQQREVERQVE” to “DDREEARKMLHKADRALNDGDPRSAQNLVDENAQVVYGDKRYSGDQQAADVMVSLRHQYDHLSLEIDRLRVDGNRVHVDATLTAQRNGSTLHSKLNFVFSKKNGRLRVSHLVIG”, the protease stability score falls from 0.745 to 0.183.

Compared with “DDTVQRMVDKFLENLKTGNEEDISKMADPNVSLNYGDKRIHGREQLMQWVERQEKEMRVEFQIRHVDVHGNKAHVTADMRIHNNGDPDNARVQFVVNAQGDKVKTITFHKTR”, “DDSENRNFHQFVRDWTTGNPEKLAELADENARVNVGDKTVHGRDHIRTLFEKLIRRMDIELRDVKFQKSNGEISIKARMVLNENGRPKEFVMKNNAQAEGEKIKNFVLNDDS” is higher in protease stability score: -0.14 for the first, 0.048 for the second.

Compared with “DEKETRKLLKDVAEAFENGNNEEIKKLLKDDVEVQYADKRVHGPDQVVEMVKKYQDLGAKVEYKKLDVRGDTVTVDVQADLGGRTAEFKVTYQAQGQKVDRFKVKYDETAKKLIKHG”, “DEEVEEVIHRLVKALRTNNPDQVNQQLDKDARIKVGDKEIQGRDRYKRTVEQKIQEMNFHIHIKRLEVQGDKVRITAQESSEHNGQPRQRRLKFELRVKNGRVKSAEYHVDK” is lower in protease stability score: 0.22 for the first, 0.183 for the second.

Compared with “DDREVDKVEELLKTGDFLKMANRADKNARMQIGDKEYRGREHVQDAAKRLDRQVDTEKVTDLRTDGEKVLVHYIQHFDGQNLEVDVEFHFHNGRLQEVVFHVRDPKKQKEFDKRVG”, “EDENMETMKDLLRAWQEGDEDRAQENADKDVTVEYGDRSFHGRSQLHRLVKERREKMRVQIKDVRFDISGDKIKIDLTYTKDHNGRPETRRVRIIARVNNGKVKFVRLDEHG” is higher in protease stability score: -0.235 for the first, 0.652 for the second.

First: DEQEHAKRVVRRLIDAFKDGDPKTYAQQLDPNVRIQIGDKEITGREKVREEFRTVRQRVDHVNLHVKRVDVNGDKIVVQIRVVRKHNGRTEQRTLVVEVRDHNGREVVKHVSFK
Second: DKEKEADQQVRTADEIYQTGNPEEAKKLADPNVDVRIGDKEYHGDRELAQIIVEKRERVDSLVFHVERINVHPGRFQLNVVLTLKHNGKHETKKEEFVMTKRNGQLRVVHMRDQ
The protease stability score of the first is higher: 0.884 for the first, 0.056 for the second.

Compared with “DKELQDTAHKLAKNGDFSRLAELADEDVQIKIGDERVTGREEQKKLVEVQQRRIDHVEVDRVHAQGNKVSVNMTIVVDGESRTVNIDITMHNGRVKEIVYNATSEEARKEMTKWYR”, “DEKETQKLLEKLAKYFVNGDLEKVKKVGKEDVEVEYGSERKHGPDAMKEHVETHKRLGIEVRYEEVHVEGDTVTAKVQADVAGHTAEMTVVYQAQGRRVDKVKLKYSEKAQKAIKHG” is higher in protease stability score: -0.362 for the first, -0.133 for the second.

First: DEDADRVFEEFIRAKTRGDPDRLSQLVDPNVRMHVGDQELRGRDTVRRFLHEVLHHARNDIHIQSMEVDGDHVSVEFKATTEHNGQPRTDRMTASAKIDNGRIKSLQEHSKK
Second: DEENRKVFEEILEAKKRGDPKQLERNVDPNVKIYYGDKDFHGRSQLSKELEKVRRELHLHLDFKRIEYHGDSVDVELKVNQQHNGKPDESDRVFHARLHNGRLEHVDARDRK
The protease stability score of the first is lower: -0.297 for the first, -0.019 for the second.

Going from “DEENLNQLKKFWHALQTNNPDQARKLADPNVRLHVGDKSVNGREEMVKRLVDKMHEMEIDYKVRDMHAHNGHIKVEAERVIHDNGQPRRATYEIRVIIKNGRIKEIQIHERQ” to “DDRHVQKRLKTFIHILRTGDPQKISNLVDPNAEIQVGDKEYHGRHEIRKLIEELKTRVDHIDVVDMKAEGDKARANLNVNVNGHDIRFVVQLVWDNGHVKSVRIKYRNERVERQEKG”, the protease stability score rises from 1.07 to 1.61.

Going from “DQEDQQRLAEQFMRALDEGDSDTIAKLLDPNARVIVGDKTVHGHRHARRVIHEFRNRVDRVDVRTVEVDNGHVRIEAVLNFNGQRTRFVYHLKIDNGRFKEMQLRSK” to “DSHQQAREMVRELQRILETNDTDKWRHMFDPNARAQYGDKEYHGRDQVTHYLQEQTQRVDSVRVNIDEVDVSGDKLRVVFTLVRVHNGEEKSDTYVFVLRFHGDHARIESFRRK”, the protease stability score falls from 0.892 to 0.687.

Compared with “DEEEEKRMTKILEHNDFHKLADNADPNVQINIGDKHIHGRDQAQTFFKQMQKAADHWSIRTMNVRNGHIVVDLVMNVNGQNIRFNLRIERRNGHIKSASVQFTDPDQKRQFDENRS”, “DEKEKLKQLARKFHKAMQTGDEDELKKNVDENVRADYGDRRYHGSEELAKWLREMKTKVDHLSMTIKDIRVKGDRAEIELEMTFDHNGRQETRQFTLQAQVHNGSLKIVQIRQS” is higher in protease stability score: 0.599 for the first, 1.32 for the second.

First: ETHVINRAIEAARHGDEDTLSKLADENAHVSVGDKEFHGREQVKNALKDWHDQVDTFEMKKVEVRGNKADVKIKVVVNGRDMTMRMEINAKGESIREINFSYRDERAKHHAQNAQG
Second: DDDQSRKLKKLFDNNNWDTLQDNADKNANIEVGNKELHGREDAEQLSEKFRDQVDHLTIESIDISGDRVIVTFVVNVNGQRVKYRVVVEAHNGRVKRMRFEFTNPEERKQYDEQLG
The protease stability score of the first is lower: 0.169 for the first, 0.899 for the second.

First: REEDVEKVIRTLLQAVHEGNPDKIRKYLKPDVEVQYADQKFKGPDEIMKLMRRMVRKGYRVQIKEQHVEGDTATTRADYQMGDKQVTVEVTAEAENGKLKHAEIKMSPQFEEIVKKG
Second: DEQQAKRVAEEFNRVLQTGDNRKAMQLADKDVKLHVGDKDVHGRETMMKLVRKERDRVDHVEIKEVTIQGNKIDVILTVVVNGRHKEKHYVLHLHNGRIEDLSVRST
The protease stability score of the first is higher: 1.49 for the first, 0.005 for the second.

Going from “DEEEASTIAKVFRTNNWEELVRLADENAKVKVGDKEVHGRHVVDEMVKLISDAADTIKYDSYTVQGEKIEMVVKLVINGQKVEFKLTARAHNGRIKEIVLSVRDEDQKRKFEKEDG” to “DQDEIRQNARDLATGDPDRAREQADKHVRVEIGEKTLHGREKLEEWMKHIHERIDHNRVHDIQIDNGRVEASVNVDINGKKVVFTIVAEFDNGKIQRVQVDVRDHEVQKVMEEIDS”, the protease stability score rises from 0.783 to 0.821.

Compared with “DERLAKQVLTMMRNERTGNEHEVDKYVDPNARFQVGDQEIHGKEELRKEVSRRRNEMRIDFRVEDMKVHGDKVHLSFKNMKNHNGRPESFRATATVHVHNGTVKSVDIKTTK”, “DEEELKKHAHNLMRAMQTGDPDKVEEYFDPDAEYTVGDQTYRGREDMREWFEEVRRQVDHNQINDVRNSENHVNVDFVLNHNGTNHRVKFKAEIHNGRAKRASITTG” is higher in protease stability score: -0.453 for the first, -0.271 for the second.

First: DEDEEETLAQTWIKLMETGDPEQNMENVDPNVKVTYGDKTLHGREQFSDWEKKLHERVDRIEIKKMDVHNGSIRIVVVNDVNGKTKRFVVHLIYENGRLKSAKETDQ
Second: DNEVAHNIMRAFKQQWRGNEDKALELMDPNAEVHVGNKQIHGMEEWVRRTAHKARRARVKVSRIDVTVHNGKVRIKMNYTVSVNGKPISWHADITVQADNGRAKHITQQVPEDLEERERG
The protease stability score of the first is higher: 0.413 for the first, 0.112 for the second.

Compared with “DEEALKKLQDILRRNDQDKMNKMIDKDVRVVIGEHEYRGKRNVQEALKREYEHADRFEVKHIEDHGDKLHVDVVLRVDGRDIRFVVVIDVHNGNIRNVKVDFTDEDTQRDFQRQLD”, “DEEALKKMVDTLLKYVEQGNIKDIQQILKENVEFKLGDTEYKGVEHAKRDVKKLKDAGVEVHVKKTEVEGDTAHVETVWHAGDYEMHVTVQYVVRGDKVEKVEVRWSEEAKKALKVG” is lower in protease stability score: 1.01 for the first, 0.24 for the second.

Reference: the NTF2 design screens of Basanta et al. (2020)
